From patent publication US20230057904A1 (Chugai, published 2023)
Numbering of substitutions follows the chain as printed. Values belong to the binder of their own block, whether it stands above or below them.

Legend:
[1] = target: T1, mouse CLDN6 (mouse, UniProt Q9Z262 1-219); test: flow cytometry, FreeStyle 293-F transfectants expressing mouse CLDN6, 10 micro g/mL antibody, anti-human IgG Alexa Fluor 647; MFI
T1 construct: also called mCLDN6; mCLDN6/FS293
T1 chain: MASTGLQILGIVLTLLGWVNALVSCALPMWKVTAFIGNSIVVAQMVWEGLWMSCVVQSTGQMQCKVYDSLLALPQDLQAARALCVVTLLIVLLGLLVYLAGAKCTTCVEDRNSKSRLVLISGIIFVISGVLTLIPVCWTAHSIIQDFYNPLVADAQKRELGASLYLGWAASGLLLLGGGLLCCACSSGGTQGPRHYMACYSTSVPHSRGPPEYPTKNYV
Experimental: (§1) Antibodies were mixed with FreeStyle™ 293-F cells transiently expressed human and mouse CLDN3, 4, 6, and 9 at final concentration of 10 micro g/mL. After 1 hour of incubation, cells were washed by 0.1% BSA containing D-PBS(−), and incubated in 5 micro g/mL of either Goat anti-Human IgG (H+L) Cross-Adsorbed Secondary Antibody, Alexa Fluor 647 (Invitrogen, A21445) or Goat anti-Mouse IgG (H+L) Highly Cross-Adsorbed Secondary Antibody, Alexa Fluor 647 (Invitrogen, A21236), for 1 hour. Cells were then washed with 0.1% BSA containing D-PBS(−), resuspended in 5 micro L of 0.1% BSA containing D-PBS(−), and analyzed by flow cytometer (iQue Screener, intellicyte).

[2] = target: T2, human CLDN4 (human, UniProt O14493 1-209); test: flow cytometry, FreeStyle 293-F transfectants expressing human CLDN4, anti-human IgG Alexa Fluor 647; MFI
T2 construct: also called hCLDN4; hCLDN4/BaF
T2 sequence: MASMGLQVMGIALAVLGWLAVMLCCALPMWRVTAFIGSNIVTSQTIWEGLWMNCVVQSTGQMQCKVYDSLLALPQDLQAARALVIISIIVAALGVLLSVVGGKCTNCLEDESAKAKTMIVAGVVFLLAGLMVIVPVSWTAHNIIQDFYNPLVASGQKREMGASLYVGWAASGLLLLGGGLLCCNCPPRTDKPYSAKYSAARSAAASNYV

[3] = target: T3, mouse CLDN3 (mouse, UniProt Q9Z0G9 1-219); test: flow cytometry, FreeStyle 293-F transfectants expressing mouse CLDN3, anti-human IgG Alexa Fluor 647; MFI
T3 construct: also called mCLDN3; mCLDN3/FS293
T3 sequence: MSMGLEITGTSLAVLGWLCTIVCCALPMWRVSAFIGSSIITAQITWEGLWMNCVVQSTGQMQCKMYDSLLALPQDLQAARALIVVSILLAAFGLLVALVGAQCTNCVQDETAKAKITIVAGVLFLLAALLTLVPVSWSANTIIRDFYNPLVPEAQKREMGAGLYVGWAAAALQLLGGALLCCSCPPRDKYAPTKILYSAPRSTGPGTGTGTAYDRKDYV
Experimental: as §1

[4] = target: T4, mouse CLDN9 (mouse, UniProt Q9Z0S7 1-217); test: flow cytometry, FreeStyle 293-F transfectants expressing mouse CLDN9, anti-human IgG Alexa Fluor 647; MFI
T4 construct: also called mCLDN9; mCLDN9/FS293
T4 sequence: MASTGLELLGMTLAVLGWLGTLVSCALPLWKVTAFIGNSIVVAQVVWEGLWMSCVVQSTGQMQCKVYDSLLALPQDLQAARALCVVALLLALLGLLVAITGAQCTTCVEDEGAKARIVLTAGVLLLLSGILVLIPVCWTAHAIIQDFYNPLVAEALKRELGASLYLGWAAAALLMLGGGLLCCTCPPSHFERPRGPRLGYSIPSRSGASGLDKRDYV
Experimental: as §1

[5] = target: T5, human CLDN9 (human, UniProt O95484 1-217); test: flow cytometry, FreeStyle 293-F transfectants expressing human CLDN9, anti-human IgG Alexa Fluor 647; MFI
T5 construct: also called hCLDN9; hCLDN9/BaF
T5 sequence: T4 sequence with V86I, L124I, S128A, S188P, H189Q, F190V
Experimental: as §1

[6] = target: T6, human CLDN3 (human, UniProt O15551 1-220); test: flow cytometry, FreeStyle 293-F transfectants expressing human CLDN3, anti-human IgG Alexa Fluor 647; MFI
T6 construct: also called hCLDN3; hCLDN3/BaF
T6 sequence: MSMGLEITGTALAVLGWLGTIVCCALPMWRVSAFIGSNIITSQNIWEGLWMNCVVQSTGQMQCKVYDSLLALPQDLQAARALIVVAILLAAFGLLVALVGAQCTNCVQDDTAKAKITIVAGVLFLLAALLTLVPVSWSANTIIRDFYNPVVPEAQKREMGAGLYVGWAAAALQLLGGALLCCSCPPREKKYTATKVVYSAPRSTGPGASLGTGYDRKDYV
Experimental: as §1

[7] = target: T7, mouse CLDN4 (mouse, UniProt O35054 1-210); test: flow cytometry, FreeStyle 293-F transfectants expressing mouse CLDN4, anti-human IgG Alexa Fluor 647; MFI
T7 construct: also called mCLDN4; mCLDN4/FS293
T7 sequence: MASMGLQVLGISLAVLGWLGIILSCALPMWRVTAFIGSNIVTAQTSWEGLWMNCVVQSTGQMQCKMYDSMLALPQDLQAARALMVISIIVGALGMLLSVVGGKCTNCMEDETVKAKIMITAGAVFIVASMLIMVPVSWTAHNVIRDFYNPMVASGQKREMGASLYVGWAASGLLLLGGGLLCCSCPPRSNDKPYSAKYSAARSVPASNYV
Experimental: as §1

[8] = target: T2, human CLDN4; test: flow cytometry on hCLDN4/BaF (Ba/F3 transfectant), Alexa Fluor 488 anti-human IgG; histogram against KLH/TR01
Experimental: (§2) Amino acid sequence are highly conserved among CLDN3, CLDN4, CLDN6 and CLDN9. Thus we examined CLDN6 binding specificity by FACS analysis. hCLDN6/BaF, hCLDN3/BaF, hCLDN4/BaF, and hCLDN9/BaF were incubated with CS2201, CS2961, AH05/TR01 and 6PHU3/TR01 at 15 micro g/ml. KLH/TR01 generated in Example 2-3 was used as a staining control. Binding of each antibody was detected with Alexa Fluor 488-conjugated anti human IgG (Invitrogen). Dead cells were separated by eFlour 780 (Invitrogen) staining.

[9] = target: T1, mouse CLDN6; test: flow cytometry, FreeStyle 293-F transfectants expressing mouse CLDN6, anti-human IgG Alexa Fluor 647; MFI
Experimental: as §1

[10] = target: T8, human CLDN6 (Claudin-6) (human, UniProt P56747 1-220); test: flow cytometry, FreeStyle 293-F transfectants expressing human CLDN6, anti-human IgG Alexa Fluor 647; MFI
T8 construct: also called hCLDN6; human Claudin 6
T8 chain: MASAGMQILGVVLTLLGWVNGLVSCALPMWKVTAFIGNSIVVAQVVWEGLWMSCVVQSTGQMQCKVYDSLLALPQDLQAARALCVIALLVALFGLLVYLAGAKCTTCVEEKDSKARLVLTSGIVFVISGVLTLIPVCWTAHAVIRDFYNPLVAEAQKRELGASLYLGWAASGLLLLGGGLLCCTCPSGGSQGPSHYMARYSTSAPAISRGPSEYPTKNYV

[11] = target: T2, human CLDN4; test: flow cytometry on hCLDN4/BaF (Ba/F3 transfectant), Alexa Fluor 488 anti-human IgG
Experimental: as §2

[12] = target: T6, human CLDN3; test: flow cytometry on hCLDN3/BaF (Ba/F3 transfectant), Alexa Fluor 488 anti-human IgG
Experimental: as §2

binding result [1]: binds | binding result [2]: no binding (tested: 10 micro g/mL) | binding result [3]: no binding (tested: 10 micro g/mL) | binding result [4]: no binding (tested: 10 micro g/mL) | binding result [5]: no binding (tested: 10 micro g/mL) | binding result [6]: no binding (tested: 10 micro g/mL) | binding result [7]: no binding (tested: 10 micro g/mL)
B1: CDA0013/TR01 (bispecific antibody, V domains shown)
VH 1: QSLEESGGRLVTPGTPLTLTCTVSGIDLNNYGVGWVRQPPGKGLEWIGYINALGSAYYASWAKGRFTISRTSTTVDLKITSPTTEDTATYFCARVRYLYIGGGGYWIDRLDLWGQGTLVTVSS
VL 1: DVVMTQTPASVEAAVGDTVTIKCQASQSISSCLSWYQQKPGQPPKLLIYYASTLASGVPSRFSGSGSGTEFTLTISGLQCDDAATYYCLGVVSYVSADGGFGGGTEVVVK
VH 2: QVQLVESGGGVVQPGGSLRLSCAASGFTFSNAWMHWVRQAPGKGLEWVAQIKDKSQNYATYVAESVKGRFTISRADSKNSIYLQMNSLKTEDTAVYYCRYVHYAAGYGVDIWGQGTTVTVSS
VL 2: DIVMTQSPLSLPVTPGEPASISCRSSQPLVHSNRNTYLHWYQQKPGQAPRLLIYKVSNRFSGVPDRFSGSGSGTDFTLKISRVEAEDVGVYYCGQGTQVPYTFGQGTKLEIK
notes: CDA0013 is rabbit-derived; IgG format by Fab arm exchange, silent Fc; also called anti-CLDN6/CD3 bispecific antibody CDA0013/TR01

binding result [1]: binds | binding result [3]: no binding (tested: 10 micro g/mL) | binding result [6]: no binding (tested: 10 micro g/mL) | binding result [8]: no binding (tested: 15 micro g/ml) | binding result [7]: no binding (tested: 10 micro g/mL)
B2: 6PHU3/TR01 (bispecific antibody, V domains shown)
VH 1: EVQLQQSGPELVKPGASMKISCKASGYSFTGYTMNWVKQSHGKNLEWIGLINPYNGGTIYNQKFKGKATLTVDKSSSTAYMELLSLTSEDSAVYYCARDYGFVLDYWGQGTTLTVSS
VL 1: DIVLTQSPSIMSVSPGEKVTITCSASSSVSYMHWFQQKPGTSPKLCIYSTSNLASGVPARFSGRGSGTSYSLTISRVAAEDAATYYCQQRSNYPPWTFGGGTKLEIK
VH 2: B1 VH 2
VL 2: B1 VL 2
notes: IgG format by Fab arm exchange, silent Fc; also called anti-CLDN6/CD3 bispecific antibody 6PHU3/TR01

binding result [9]: no binding (tested: 10 micro g/mL) | binding result [3]: no binding (tested: 10 micro g/mL) | binding result [4]: no binding (tested: 10 micro g/mL) | binding result [10]: no binding (tested: 10 micro g/mL) | binding result [5]: no binding (tested: 10 micro g/mL) | binding result [11]: no binding (tested: 15 micro g/ml) | binding result [12]: no binding (tested: 15 micro g/ml) | binding result [7]: no binding (tested: 10 micro g/mL)
B3: KLH/TR01 (bispecific antibody, V domains shown)
VH 1: QVQLQQSGPQLVRPGASVKISCKASGYSFTSYWMHWVNQRPGQGLEWIGMIDPSYSETRLNQKFKDKATLTVDKSSSTAYMQLSSPTSEDSAVYYCALYGNYFDYWGQGTTLTVSS
VL 1: DIQMTQSSSSFSVSLGDRVTITCKASEDIYNRLAWYQQKPGNAPRLLISGATSLETGVPSRFSGSGSGKDYTLSITSLQTEDVATYYCQQYWSTPYTFGGGTKLEVK
VH 2: B1 VH 2
VL 2: B1 VL 2
notes: made by Fab arm exchange; also called bispecific antibody of anti-keyhole limpet hemocyanin (KLH) antibody paired with the human CD3 antibody TR01; negative control
